The source of these data is the array DNA melting data of Ke et al..

The term Tm denotes the temperature at the midpoint of the melting transition.

The series can be described thus: melting temperature; melt of duplexes. To be noted: sodium 0.0675 M; strand 1 µM.
Take “CGACGTGCCCTATGTGCTG+CAGCACATACAGCACGTCG ((((((((..(((((((((+)))))))))..))))))))”: the Tm came out at 48.8 °C.
For the substance “CGACGTGCTCTATGTGCTG+CAGCACATATAGCACGTCG (((((((((.(((((((((+))))))))).)))))))))”, the Tm amounted to 54.3 °C.
As for “CGACGTGCTAGATGTGCTG+CAGCACATAAGGCACGTCG ((((((((...((((((((+))))))))...))))))))”, the Tm turned out to be 51.4 °C.
In the case of “CGACGTGCTAAATGTGCTG+CAGCACATCGAGCACGTCG (((((((((..((((((((+))))))))..)))))))))”, the Tm amounted to 51.8 °C.
The figure for “CGACGTGCAATATGTGCTG+CAGCACATTTAGCACGTCG ((((((((.(.((((((((+)))))))).).))))))))” is 50.8 °C; for “CGACGTGCTGGATGTGCTG+CAGCACATCTGGCACGTCG ((((((((..(((((((((+)))))))))..))))))))” it is 58.3 °C; for “CGACGTGCGTTATGTGCTG+CAGCACATAAAGCACGTCG ((((((((.((((((((((+)))))))))).))))))))” it is 56 °C.
The result for “CGACGTGCCACATGTGCTG+CAGCACATCTGGCACGTCG ((((((((((.((((((((+)))))))).))))))))))” reads 55.2 °C; that for “CGACGTGCGAGATGTGCTG+CAGCACATCATGCACGTCG ((((((((..(((((((((+)))))))))..))))))))”, 56.7 °C; that for “CGACGTGCCGTATGTGCTG+CAGCACATGGTGCACGTCG ((((((((...((((((((+))))))))...))))))))”, 46.6 °C.
The figure for “CGACGTGCAGCATGTGCTG+CAGCACATTTGGCACGTCG ((((((((...((((((((+))))))))...))))))))” is 45.4 °C; for “CGACGTGCACGATGTGCTG+CAGCACATCCCGCACGTCG ((((((((..(((((((((+)))))))))..))))))))” it is 49.9 °C; for “CGACGTGCAAAATGTGCTG+CAGCACATGGGGCACGTCG ((((((((...((((((((+))))))))...))))))))” it is 51.7 °C.
On to “CGACGTGCGTTATGTGCTG+CAGCACATGAAGCACGTCG ((((((((.(.((((((((+)))))))).).))))))))”, for which the Tm worked out at 54.8 °C.
On to “CGACGTGCTACATGTGCTG+CAGCACATATGGCACGTCG ((((((((.(.((((((((+)))))))).).))))))))”, for which the Tm was determined as 51.3 °C.
The result for “CGACGTGCTAGATGTGCTG+CAGCACATGCCGCACGTCG ((((((((...((((((((+))))))))...))))))))” reads 49.2 °C; that for “CGACGTGCCTGATGTGCTG+CAGCACATTAAGCACGTCG ((((((((.(.((((((((+)))))))).).))))))))”, 50.8 °C; that for “CGACGTGCACAATGTGCTG+CAGCACATTATGCACGTCG (((((((((.(((((((((+))))))))).)))))))))”, 52.8 °C.
Consider “CGACGTGCAAAATGTGCTG+CAGCACATGTCGCACGTCG ((((((((.(.((((((((+)))))))).).))))))))”, for which the Tm worked out at 53.3 °C.
The result for “CGACGTGCAGAATGTGCTG+CAGCACATGGTGCACGTCG (((((((((..((((((((+))))))))..)))))))))” reads 52.6 °C.
The result for “CGACGTGCATTATGTGCTG+CAGCACATAGCGCACGTCG ((((((((..(((((((((+)))))))))..))))))))” reads 49.4 °C; that for “CGACGTGCACCATGTGCTG+CAGCACATGATGCACGTCG (((((((((.(((((((((+))))))))).)))))))))”, 56.5 °C.
The result for “CGACGTGCTAAATGTGCTG+CAGCACATACAGCACGTCG (((((((((..((((((((+))))))))..)))))))))” reads 51.9 °C; that for “CGACGTGCCAGATGTGCTG+CAGCACATCTGGCACGTCG (((((((((((((((((((+)))))))))))))))))))”, 66.5 °C.
Consider “CGACGTGCTTCATGTGCTG+CAGCACATTCAGCACGTCG (((((((((..((((((((+))))))))..)))))))))”, for which the Tm was 50.7 °C.
The figure for “CGACGTGCGAGATGTGCTG+CAGCACATGGTGCACGTCG ((((((((...((((((((+))))))))...))))))))” is 48.5 °C; for “CGACGTGCCATATGTGCTG+CAGCACATGTGGCACGTCG ((((((((((.((((((((+)))))))).))))))))))” it is 60.3 °C.
The figure for “CGACGTGCAGGATGTGCTG+CAGCACATTACGCACGTCG ((((((((...((((((((+))))))))...))))))))” is 50.7 °C; for “CGACGTGCTAGATGTGCTG+CAGCACATGCAGCACGTCG (((((((((..((((((((+))))))))..)))))))))” it is 53 °C; for “CGACGTGCGCAATGTGCTG+CAGCACATTGTGCACGTCG ((((((((.((((((((((+)))))))))).))))))))” it is 59.9 °C.
The result for “CGACGTGCCGGATGTGCTG+CAGCACATTTAGCACGTCG ((((((((...((((((((+))))))))...))))))))” reads 49.4 °C; that for “CGACGTGCAGGATGTGCTG+CAGCACATACGGCACGTCG ((((((((.(.((((((((+)))))))).).))))))))”, 56.1 °C.
In the case of “CGACGTGCGCAATGTGCTG+CAGCACATGATGCACGTCG ((((((((...((((((((+))))))))...))))))))”, the midpoint of thermal melting (Tm) stood at 52.5 °C.
The figure for “CGACGTGCGGAATGTGCTG+CAGCACATGCCGCACGTCG ((((((((((.((((((((+)))))))).))))))))))” is 62.1 °C.
The result for “CGACGTGCCCAATGTGCTG+CAGCACATGCTGCACGTCG ((((((((...((((((((+))))))))...))))))))” reads 47.8 °C; that for “CGACGTGCCCAATGTGCTG+CAGCACATCTAGCACGTCG ((((((((...((((((((+))))))))...))))))))”, 48.8 °C; that for “CGACGTGCTTCATGTGCTG+CAGCACATTGTGCACGTCG ((((((((...((((((((+))))))))...))))))))”, 44.4 °C.
“CGACGTGCACAATGTGCTG+CAGCACATTCTGCACGTCG (((((((((.(((((((((+))))))))).)))))))))”: the Tm is 51.7 °C.
The result for “CGACGTGCGGCATGTGCTG+CAGCACATCCAGCACGTCG ((((((((.(.((((((((+)))))))).).))))))))” reads 53.9 °C; that for “CGACGTGCTAGATGTGCTG+CAGCACATCACGCACGTCG ((((((((..(((((((((+)))))))))..))))))))”, 54.3 °C; that for “CGACGTGCTGAATGTGCTG+CAGCACATGAAGCACGTCG (((((((((..((((((((+))))))))..)))))))))”, 59.3 °C.
The result for “CGACGTGCCAGATGTGCTG+CAGCACATGTCGCACGTCG ((((((((.(.((((((((+)))))))).).))))))))” reads 49.7 °C.
For the substance “CGACGTGCGGAATGTGCTG+CAGCACATGCAGCACGTCG ((((((((.(.((((((((+)))))))).).))))))))”, the Tm is 59.9 °C.
The result for “CGACGTGCTTAATGTGCTG+CAGCACATAGAGCACGTCG (((((((((..((((((((+))))))))..)))))))))” reads 53.1 °C; that for “CGACGTGCTACATGTGCTG+CAGCACATTTGGCACGTCG ((((((((.(.((((((((+)))))))).).))))))))”, 51.1 °C; that for “CGACGTGCGACATGTGCTG+CAGCACATGCTGCACGTCG ((((((((..(((((((((+)))))))))..))))))))”, 54.7 °C.
The figure for “CGACGTGCGTCATGTGCTG+CAGCACATCGCGCACGTCG (((((((((..((((((((+))))))))..)))))))))” is 54.2 °C.
